The record followed here is patent US20210388110A1 (published 2021).

This assay concerns the target T1, soluble human CD3ε chain (human, UniProt P07766 23-126, limits assumed).
T1 construct: the text says soluble human CD3ε chain; also called human CD3 epsilon chain
The assay is described as follows: SPR (Biacore).

A word on the Kd: it is the constant that tells how readily two partners part at equilibrium. A low value points to a tighter complex.

T1 sequence (P07766 23-126 limits assumed): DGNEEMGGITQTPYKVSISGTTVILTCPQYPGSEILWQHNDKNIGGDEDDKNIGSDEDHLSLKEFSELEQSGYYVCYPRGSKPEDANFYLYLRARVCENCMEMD

B1: TR01H083-E22Hh/none-Hi-Kn010G3/L0212-k0 (antibody, human IgG1, kappa, L234A L235A, N297A)
heavy: QVQLVESGGGLVQPGRSLRLSCAASGFTFSNAWMHWVRQAPGKGLEWVAQIKDKSNNYATYYAESVKGRFTISRADSKNSIYLQMNSLKTEDTAVYYCRYVHYAAGYGVDIWGQGTTVTVSSASTKGPSVFPLAPSSKSTSGGTAALGCLVKDYFPEPVTVSWNSGALTSGVHTFPAVLQSSGLYSLSSVVTVPSSSLGTQTYICNVNHKPSNTKVDKKVEPKSCDKTHTCPPCPAPEAAGGPSVFLFPPKPKDTLMISRTPEVTCVVVDVSHEDPEVKFNWYVDGVEVHNAKTKPREEQYASTYRVVSVLTVLHQDWLNGKEYKCKVSNKALPAPIEKTISKAKGQPREPQVYTLPPSRCELTKNQVSLSCAVKGFYPSDIAVEWESNGQPENNYKTTPPVLDSDGSFFLVSKLTVDKSRWQQGNVFSCSVMHEALHNHYTQKSLSLSPDYKDDDDK
chain: EPKSSDKTHTCPPCPAPELLGGPSVFLFPPKPKDTLMISRTPEVTCVVVDVSHEDPEVKFNWYVDGVEVHNAKTKPREEQYNSTYRVVSVLTVLHQDWLNGKEYKCKVSNKALPAPIEKTISKAKGQPREPQVCTLPPSRDELTKNQVSLWCLVKGFYPSDIAVEWESNGQPENNYKTTPPVLDSDGSFFLYSKLTVDKSRWQQGNVFSCSVMHEALHNRYTQKSLSLSP
light: DIVMTQSPLSLPVTPGEPASISCRPSQSPVHSNRNTYLHWYQQKPGQAPRLLIYKVSNRFSGVPDRFSGSGSGTDFTLKISRVEAEDVGVYYCYQGTQVPYTFGQGTKLEIKRTVAAPSVFIFPPSDEQLKSGTASVVCLLNNFYPREAKVQWKVDNALQSGNSQESVTEQDSKDSTYSLSSTLTLSKADYEKHKVYACEVTHQGLSSPVTKSFNRGEC
notes: single-arm
Take B1: the dissociation constant Kd is 0.0586 nM.

B2: TR01H084-E22Hh/none-Hi-Kn010G3/L0000-k0 (antibody, human IgG1, kappa, L234A L235A, N297A)
heavy: QVQLVESGGGVVQPGGSLRLSCAASGFTFSNAWMHWVRQAPGKGLEWVAQIKDKSQNYATYYAESVKGRFTISRADSKNSIYLQMNSLKTEDTAVYYCRYVHYAAGYGVDIWGQGTTVTVSSASTKGPSVFPLAPSSKSTSGGTAALGCLVKDYFPEPVTVSWNSGALTSGVHTFPAVLQSSGLYSLSSVVTVPSSSLGTQTYICNVNHKPSNTKVDKKVEPKSCDKTHTCPPCPAPEAAGGPSVFLFPPKPKDTLMISRTPEVTCVVVDVSHEDPEVKFNWYVDGVEVHNAKTKPREEQYASTYRVVSVLTVLHQDWLNGKEYKCKVSNKALPAPIEKTISKAKGQPREPQVYTLPPSRCELTKNQVSLSCAVKGFYPSDIAVEWESNGQPENNYKTTPPVLDSDGSFFLVSKLTVDKSRWQQGNVFSCSVMHEALHNHYTQKSLSLSPDYKDDDDK
chain: EPKSSDKTHTCPPCPAPELLGGPSVFLFPPKPKDTLMISRTPEVTCVVVDVSHEDPEVKFNWYVDGVEVHNAKTKPREEQYNSTYRVVSVLTVLHQDWLNGKEYKCKVSNKALPAPIEKTISKAKGQPREPQVCTLPPSRDELTKNQVSLWCLVKGFYPSDIAVEWESNGQPENNYKTTPPVLDSDGSFFLYSKLTVDKSRWQQGNVFSCSVMHEALHNRYTQKSLSLSP
light: DIVMTQSPLSLPVTPGEPASISCRSSQSLVHSNRNTYLHWYQQKPGQAPRLLIYKVSNRFSGVPDRFSGSGSGTDFTLKISRVEAEDVGVYYCGQGTQVPYTFGQGTKLEIKRTVAAPSVFIFPPSDEQLKSGTASVVCLLNNFYPREAKVQWKVDNALQSGNSQESVTEQDSKDSTYSLSSTLTLSKADYEKHKVYACEVTHQGLSSPVTKSFNRGEC
notes: single-arm
In turn, B2 had a Kd of 21.3 nM.

B3: TR01H083-E22Hh/none-Hi-Kn010G3/L0262-k0 (antibody, human IgG1, kappa, L234A L235A, N297A)
heavy: QVQLVESGGGLVQPGRSLRLSCAASGFTFSNAWMHWVRQAPGKGLEWVAQIKDKSNNYATYYAESVKGRFTISRADSKNSIYLQMNSLKTEDTAVYYCRYVHYAAGYGVDIWGQGTTVTVSSASTKGPSVFPLAPSSKSTSGGTAALGCLVKDYFPEPVTVSWNSGALTSGVHTFPAVLQSSGLYSLSSVVTVPSSSLGTQTYICNVNHKPSNTKVDKKVEPKSCDKTHTCPPCPAPEAAGGPSVFLFPPKPKDTLMISRTPEVTCVVVDVSHEDPEVKFNWYVDGVEVHNAKTKPREEQYASTYRVVSVLTVLHQDWLNGKEYKCKVSNKALPAPIEKTISKAKGQPREPQVYTLPPSRCELTKNQVSLSCAVKGFYPSDIAVEWESNGQPENNYKTTPPVLDSDGSFFLVSKLTVDKSRWQQGNVFSCSVMHEALHNHYTQKSLSLSPDYKDDDDK
chain: EPKSSDKTHTCPPCPAPELLGGPSVFLFPPKPKDTLMISRTPEVTCVVVDVSHEDPEVKFNWYVDGVEVHNAKTKPREEQYNSTYRVVSVLTVLHQDWLNGKEYKCKVSNKALPAPIEKTISKAKGQPREPQVCTLPPSRDELTKNQVSLWCLVKGFYPSDIAVEWESNGQPENNYKTTPPVLDSDGSFFLYSKLTVDKSRWQQGNVFSCSVMHEALHNRYTQKSLSLSP
light: DIVMTQSPLSLPVTPGEPASISCRSSQPPVHSNRNTYLHWYQQKPGQAPRLLIYKVSNRFSGVPDRFSGSGSGTDFTLKISRVEAEDVGVYYCAQGTQVPYTFGQGTKLEIKRTVAAPSVFIFPPSDEQLKSGTASVVCLLNNFYPREAKVQWKVDNALQSGNSQESVTEQDSKDSTYSLSSTLTLSKADYEKHKVYACEVTHQGLSSPVTKSFNRGEC
notes: single-arm
Regarding B3, binding was put at a Kd of 2.45 nM.

B4: TR01H083-E22Hh/none-Hi-Kn010G3/L0222-k0 (antibody, human IgG1, kappa, L234A L235A, N297A)
heavy: QVQLVESGGGLVQPGRSLRLSCAASGFTFSNAWMHWVRQAPGKGLEWVAQIKDKSNNYATYYAESVKGRFTISRADSKNSIYLQMNSLKTEDTAVYYCRYVHYAAGYGVDIWGQGTTVTVSSASTKGPSVFPLAPSSKSTSGGTAALGCLVKDYFPEPVTVSWNSGALTSGVHTFPAVLQSSGLYSLSSVVTVPSSSLGTQTYICNVNHKPSNTKVDKKVEPKSCDKTHTCPPCPAPEAAGGPSVFLFPPKPKDTLMISRTPEVTCVVVDVSHEDPEVKFNWYVDGVEVHNAKTKPREEQYASTYRVVSVLTVLHQDWLNGKEYKCKVSNKALPAPIEKTISKAKGQPREPQVYTLPPSRCELTKNQVSLSCAVKGFYPSDIAVEWESNGQPENNYKTTPPVLDSDGSFFLVSKLTVDKSRWQQGNVFSCSVMHEALHNHYTQKSLSLSPDYKDDDDK
chain: EPKSSDKTHTCPPCPAPELLGGPSVFLFPPKPKDTLMISRTPEVTCVVVDVSHEDPEVKFNWYVDGVEVHNAKTKPREEQYNSTYRVVSVLTVLHQDWLNGKEYKCKVSNKALPAPIEKTISKAKGQPREPQVCTLPPSRDELTKNQVSLWCLVKGFYPSDIAVEWESNGQPENNYKTTPPVLDSDGSFFLYSKLTVDKSRWQQGNVFSCSVMHEALHNRYTQKSLSLSP
light: DIVMTQSPLSLPVTPGEPASISCRSSQSPVHSNRNTYIQWYQQKPGQAPRLLIYKVSNRFSGVPDRFSGSGSGTDFTLKISRVEAEDVGVYYCYQGTQVPYTFGQGTKLEIKRTVAAPSVFIFPPSDEQLKSGTASVVCLLNNFYPREAKVQWKVDNALQSGNSQESVTEQDSKDSTYSLSSTLTLSKADYEKHKVYACEVTHQGLSSPVTKSFNRGEC
notes: single-arm
B4 had a Kd of 9.42 nM.
